Consider 4 molecules from patent publication US20220378949A1, “NEUROTROPHIN RECEPTOR BINDING CONJUGATE COMPOSITIONS, METHODS OF USE AND METHODS OF MAKING THEREOF” (priority 2019, published 2022).

The test system of series [1] is superior cervical ganglia (SCG) neurons. As to the kind of experiment: Retrograde axonal transport of 800-rhNGF in Xona microfluidic chambers, LI-COR Odyssey imaging. It counts as cell-based, rat. The settings on record: 30 ng/mL at distal axons, 48 hours. From the text:
(§1) Increasing conjugation leads to decreased protein conjugate solubility. A construct where the active agent has a greater molecular weight and less hydrophilic Dyomics DY-800 Near InfraRed (NIR) dye was attached directly to recombinant human NGF (rhNGF) (FIG. 2). In subsequent studies, we purified DAR sub-species using a (Waters column) reverse phase HPLC (RP-HPLC). […] Cultures were maintained until the axons extended through the channels in the microfluidic chambers to the side without cells plated. FIG. 2B depicts 800-rhNGF, 30 ng/mL was added to the wells where the terminal (distal) axons had extended. 48 hours after addition of 800-rhNGF to distal ends in left chambers, chambers were imaged on a LI-COR Odyssey scanner. […] FIGS. 2C and 2D depict brightfield images of wells containing cell bodies, showing improved visualization of cell clumps for comparison to images containing 800 NIR cell bodies. Neuronal Survival Confirms TrkB Binding Activity is Intact after Synthetic Manipulation.

The conditions of series [2]: administered sub-cutaneously (SQ); cited from earlier work.
A short description of series [3]: Stability of rhNGF in plasma. It is filed as in vitro ADME. The settings on record: 37° C. An excerpt: As an example of an intracellularly active small molecule compound (SMC), the glucocorticoid fluocinolone acetonide (FA) was conjugated using a heterobifunctional linker to rhNGF and rhBDNF, both of which constructs exerted analgesic (anti-inflammatory) activity in vivo. Dorsal Root Ganglia (DRG) in diseases of the peripheral nervous system (PNS) play a fundamental role in chronic pain generally. NGF and BDNF localize due to their selectivity for distinct populations of peripheral neurons by binding to TrkA and TrkB expressed largely in nociceptors and proprioceptors, respectively. In treating forms of pain in which the DRG are involved, either NGF and/or BDNF should deliver intracellularly active FA by axonal transport to subpopulations of sensory neuron cell bodies in DRG and via their central synaptic terminals, into the dorsal horn of the spinal cord. Since TrkB is highly expressed in the neurofilament-1-expressing subpopulation of low-threshold mechanosensory neurons in the DRG, peripherally injected BDNF should deliver FA to the DRG. In treating pain, FA may alter neuronal excitability to be released or diffuse, acting on nearby inflammatory cells e.g. microglia, astrocytes, or satellite glia. rhNGF is stable in plasma for up to 4 days at 37° C.

Series [4] has as its system Retinal Ganglion Cells (RGCs). As to the kind of experiment: Neuronal survival of primary Retinal Ganglion Cells with labeled rhBDNF (TrkB binding intact). It counts as cell-based, rat. The method, then:
Labeled BDNF test articles, either 800-rhBDNF or FA-rhBDNF, were also assessed to as to whether the compositions would sustain neuronal survival by plating conjugates in Retinal Ganglion Cells (RGCs). RGCs were isolated from P6 rats by sequential immune-panning. Retinas are isolated and enzymatically digested by papain followed by mechanical dissociation into a single-cell suspension. Cells are negatively panned to remove macrophages and other nonspecifically adhering cells and then positively panned for RGCs using the Thy1.1 T11D7 hybridoma supernatant.
as §1
High Performance Liquid Chromatography and mass spectrometry was used to quantify the number of dye molecules attached or crosslinked to rhBDNF (i.e., the ratio of fluorescent dye in the 800 region to rhBDNF).

A further series has as its target T1, TrkA receptors (Rattus norvegicus, UniProt P35739).
T1 construct: In vitro systems that use primary neurons express Trk receptors on distal ends were used; endogenous in cells
Put plainly: Uptake and retrograde transport of fluorescent NGF in compartmented cultures of SCG neurons, competition with unlabelled NGF. It counts as cell-based. The settings on record: for Uptake of fluorescent NGF at distal ends of neurons (TrkA-mediated endocytosis): distal axon compartments, SCG neurons. How it is done: Confirm Trk receptor binding. […] Receptor binding activity where up to 100× unmodified mNGF is co-administered with the Trk binding agent was determined. 488-mNGF (FIG. 1A) is shown in cell bodies, after binding to TrkA, endocytosis and transport to the central chamber of the in vitro system. In FIG. 1B, TrkA was confirmed here by adding 1000 ng/ml unmodified mNGF to compete with 100 ng/ml 488-mNGF for the same TrkA receptors. FIG. 1C: Neurons in compartmented cultures were given approximately 10 ng/mL fNGF (as determined by neuronal survival bioassay), or 10 ng/mL fNGF+100× excess unlabelled NFG (1000 ng/mL) in the distal axon compartments. 24 hours later fluorescence images of the cell bodies were obtained (FIG. 1C). […] Alexa Fluor requirement for DAR<4 per mouse NGF monomer. Fluorescent dye Alexa Fluor 488, which due to its size and hydrophobicity is attached to NGF without using a spacer of any length binds to TrkA, is endocytosed after binding, and is transported retrogradely to the neuronal cell body. In FIG. 4, we show in vitro results for a “mixed DAR” 800-rhNGF of 1.64 which is expressed as an average of 1-4 dye molecules per monomer using standard analytical methods mass spectroscopy (MS) or high performance liquid chromatography (HPLC), in each case where the NT involved is a dimer. […] Survival. […] SGC neurons were harvested from E-21 Sprague Dawley rat pups.

For series [5], the system named is superior cervical ganglia (SCG) neurons. As to the kind of experiment: Neuronal survival assay in primary superior cervical ganglia neurons (compartmented cultures / microfluidic devices). The settings on record: FIG. 4 and FIG. 1C. It counts as cell-based, rat. The method, then: In vitro systems that use primary neurons express Trk receptors on distal ends were used so that both survival and Trk binding activity may be assessed following synthetic manipulation in producing conjugates.
Confirm Trk receptor binding. […] Receptor binding activity where up to 100× unmodified mNGF is co-administered with the Trk binding agent was determined. […] FIG. 1C: Neurons in compartmented cultures were given approximately 10 ng/mL fNGF (as determined by neuronal survival bioassay), or 10 ng/mL fNGF+100× excess unlabelled NFG (1000 ng/mL) in the distal axon compartments. 24 hours later fluorescence images of the cell bodies were obtained (FIG. 1C). […] Survival. […] SGC neurons were harvested from E-21 Sprague Dawley rat pups.
DAR analytics were calculated using Reverse Phase High Performance Liquid Chromatography (RP-HPLC) and/or mass spectroscopy (MS). […] (FIG. 5)

The mark [6] stands for this setting: average ratio of about 3.1 per monomer.

T1 sequence (P35739 33-799): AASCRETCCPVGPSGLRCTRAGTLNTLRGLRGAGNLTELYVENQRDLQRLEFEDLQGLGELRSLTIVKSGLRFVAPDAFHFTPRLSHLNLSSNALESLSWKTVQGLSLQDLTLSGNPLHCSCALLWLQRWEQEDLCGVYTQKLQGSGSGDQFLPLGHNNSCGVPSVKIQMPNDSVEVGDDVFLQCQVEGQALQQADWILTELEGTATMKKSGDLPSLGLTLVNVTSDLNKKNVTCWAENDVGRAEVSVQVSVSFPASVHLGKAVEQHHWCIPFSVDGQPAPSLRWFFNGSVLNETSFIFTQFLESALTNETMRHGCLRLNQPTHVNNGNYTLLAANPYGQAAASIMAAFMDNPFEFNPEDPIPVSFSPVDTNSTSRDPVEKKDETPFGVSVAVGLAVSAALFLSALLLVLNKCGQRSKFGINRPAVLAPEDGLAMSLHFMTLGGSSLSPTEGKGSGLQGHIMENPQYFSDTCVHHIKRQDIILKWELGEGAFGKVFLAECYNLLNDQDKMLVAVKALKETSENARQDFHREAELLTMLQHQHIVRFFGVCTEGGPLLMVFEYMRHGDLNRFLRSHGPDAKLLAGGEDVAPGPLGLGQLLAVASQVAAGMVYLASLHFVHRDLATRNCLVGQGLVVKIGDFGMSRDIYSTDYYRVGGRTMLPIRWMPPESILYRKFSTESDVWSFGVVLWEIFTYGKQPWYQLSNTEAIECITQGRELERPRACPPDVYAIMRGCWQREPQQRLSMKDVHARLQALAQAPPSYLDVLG

As to “800-rhNGF: Dyomics DY-800 Near InfraRed (NIR) dye attached directly to recombinant human NGF (rhNGF)”, in series [1], the “Retrograde transport to cell bodies (800 NIR labelled cell bodies visualized)” value is recorded as “retrogradedly transported”.
In the case of “rhNGF: recombinant human NGF (nerve growth factor)”, the “Maximum Tolerated Dose (MTD)” value in series [2] was 1 µg/kg. The “Stability in plasma (time stable)” value in series [3] is listed as “up to 4 days”.

B1: 800-rhBDNF: NIR dye in the 800 region directly attached to rhBDNF (conjugate, UniProt P23560 19-247, looked up)
Neurotrophic factor BDNF …: APMKEANIRGQGGLAYPGVRTHGTLESVNGPKAGSRGLTSLADTFEHVIEELLDEDQKVRPNEENNKDADLYTSRVMLSSQVPLEPPLLFLLEEYKNYLDAANMSMRVRRHSDPARRGELSVCDSISEWVTAADKKTAVDMSGGTVTVLEKVPVSKGQLKQYFYETKCNPMGYTKEGCRGIDKRHWNSQCRTTQSYVRALTMDSKKRIGWRFIRIDTSCVCTLTIKRGR
modifications: NIR 800 dye
notes: NIR dye in the 800 region directly attached to rhBDNF
With B1, the “Neuronal survival in primary neurons of Retinal Ganglion Cells” value in series [4] (FIG. 3) is reported as “sustained neuronal survival”. Further, in series [4] (setting [6]), the Intraneuronal uptake result is “intraneuronal uptake” and the Trk binding entry is “Trk binding”.

B2: 488-mNGF: fluorescent dye Alexa Fluor 488 attached to murine NGF (conjugate, UniProt P01139 122-241, looked up)
Beta-nerve growth factor: SSTHPVFHMGEFSVCDSVSVWVGDKTTATDIKGKEVTVLAEVNINNSVFRQYFFETKCRASNPVESGCRGIDSKHWNSYCTTTHTFVKALTTDEKQAAWRFIRIDTACVCVLSRKATRRG
modifications: Alexa Fluor 488 dye
notes: fluorescent dye Alexa Fluor 488 attached to murine NGF
Regarding B2, the “Accumulation of fluorescence in the cell bodies with 100× excess unlabelled NGF” value in the series with TrkA receptors (10 ng/mL fNGF + 1000 ng/mL unlabelled NGF in distal axon compartments, 24 hours) was “effectively inhibited”. Besides, the “Uptake of fluorescent NGF at distal ends of neurons (TrkA-mediated endocytosis)” value with TrkA receptors is “endocytosed at the distal ends”; with TrkA receptors (listed as fNGF) it was “specific, TrkA receptor-mediated process”. Besides, the Survival of neurons result in series [5] is on record as “sustained the survival of neurons”.
